The source of these data is US20240368301A1 (HANGZHOU JIUYUAN GENE ENGINEERING, published 2024).

Assay [1] deals with T1, SIRPγ on cells (Jurkat cells) (UniProt Q9P1W8 29-387).
T1 construct: whole, on cells
The assay can be described thus: FACS titration on SIRPγ-carrying cells, goat anti-hIgG-AF488 (panel SIRPγ).

In assay [2] the target is T2, SIRPα-V1 on 293T-SIRPα-V1 cells (human, UniProt P78324 31-504).
T2 construct: Stably transfected cell line
The assay can be described thus: FACS titration on 293T-SIRPα-V1 cells, goat anti-hIgG-AF488 (panel SIRPα-V1). The protocol: (§1) After washing, cells were stained by 0.2 μg of goat anti-hIgG-AF488 at 4° C. for 30 min, resuspended in […] of DPBS/1% FBS, and analyzed by FlowJo V10 and GraphPad Prism6 software.

The target in assay [3] is T3, SIRPα-V8 on stably transfected cells (Homo sapiens (Human), UniProt P78324 31-504).
T3 construct: also called CHOZN-SIRPα-V8; 293T-SIRPα-V8
The assay is described as follows: FACS titration on 293T-SIRPα-V8 cells, goat anti-hIgG-AF488 (panel SIRPα-V8). The protocol:
as §1

Assay [4] deals with T4, SIRPα V1-his (ACRO, Cat #SIA-H5225) (human, UniProt P78324 31-370).
T4 construct: not shown: His tag
The assay can be described thus: ELISA: coated SIRPα-V1-his, antibody titrated, goat anti-hIgG Fc HRP (panel SIRPα-V1). The protocol:
(§2) 100 μL of 1 μg/mL of SIRPα-V1-his, SIRPα-V2-his and SIRPα-V8-his (Sino Biological, Cat #30015-H08H) were coated overnight at 4° C. in Maxisorp ELISA 96-well plates. […] After washing, 100 μL of 1:5000 dilution of goat Anti-hIgG Fc HRP (Invitrogen, Cat #A18823) was added to each well and incubated for 1 h. TMB substrate was used for color development and enzyme marker readings.
(In general: An ELISA detects its analyte on a solid surface through an enzyme-linked reagent.)

The target of assay [5] is T5, SIRPα-V8-his (Sino Biological, Cat #30015-H08H).
T5 construct: The His tag belongs to the same chain; not shown: exact C-terminal limit of the vendor's construct
The assay can be described thus: ELISA: coated SIRPα-V8-his, antibody titrated, goat anti-hIgG Fc HRP (panel SIRPα-V8). The protocol: as §2

The target of assay [6] is T6, cynomolgus macaques SIRPα-his (ACRO, Cat #SIA-C52H7) (cynomolgus macaque, UniProt A0A2K5VYQ9 31-369).
T6 construct: also called Monkey SIRPα; cynomolgus macaque SIRPα
T6 sequence: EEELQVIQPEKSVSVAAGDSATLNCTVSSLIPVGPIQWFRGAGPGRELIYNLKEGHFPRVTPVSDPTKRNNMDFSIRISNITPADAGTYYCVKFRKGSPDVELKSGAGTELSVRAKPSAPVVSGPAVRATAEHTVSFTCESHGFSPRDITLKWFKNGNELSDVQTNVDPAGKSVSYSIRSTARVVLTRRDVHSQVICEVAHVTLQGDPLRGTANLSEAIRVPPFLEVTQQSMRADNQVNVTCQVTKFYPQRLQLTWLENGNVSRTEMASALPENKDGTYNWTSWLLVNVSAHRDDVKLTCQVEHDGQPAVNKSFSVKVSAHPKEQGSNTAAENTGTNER
The assay can be described thus: ELISA: coated cynomolgus macaques SIRPα-his, antibody titrated, goat anti-hIgG Fc HRP (left panel). The protocol: 100 μL of 1 μg/mL of cynomolgus macaques SIRPα-his were coated overnight at 4° C. in Maxisorp ELISA 96-well plates. […] After washing, each well was incubated with 100 μL of 1:5000-fold diluted goat anti-hIgG Fc HRP for 1 h at 37° C. and then substrate TMB, and read by an enzyme marker.

Assay [7] has as its target T2, SIRPα-V1 on 293T-SIRPα-V1 cells. The assay can be described thus: competition FACS: 293T-SIRPα-V1 cells, antibody titrated against CD47-FITC, % of blocking (panel SIRPα-V1-CD47). The protocol:
(§3) After washing, cells were analyzed by utilizing FlowJo V10 and GraphPad Prism6 software.

The target in assay [8] is T3, SIRPα-V8 on stably transfected cells. The assay is described as follows: competition FACS: 293T-SIRPα-V8 cells, antibody titrated against CD47-FITC, % of blocking (panel SIRPα-V8-CD47). The protocol: as §3
Assay [9] has as its target SIRPα-V2 on CHOZN-SIRPα-V2 cells (Homo sapiens (Human), UniProt P78324 31-504). The assay can be described thus: competition FACS: CHOZN-SIRPα-V2 cells, antibody titrated against CD47-FITC, % of blocking (panel SIRPα-V2-CD47). The protocol:
as §3

Assay [10] has as its target T4, SIRPα V1-his (ACRO, Cat #SIA-H5225). The assay is described as follows: competition ELISA: coated SIRPα-V1-his, antibody titrated against biotin-CD47, streptavidin-HRP (panel SIRPα-V1-CD47). The protocol: 100 μL of 1 μg/mL of recombinant SIRPα-V1-his and SIRPα-V2-his were coated overnight at 4° C. in Maxisorp ELISA 96-well plates. […] After washing, each well was added with 0.2 μg Streptavidin-HRP, substrate TMB, and read by an enzyme marker.

The target is the same in assay [11]. The assay is described as follows: BLI (ForteBio Octet RED 96): SIRPα V1-his on Ni-NTA biosensor, antibody in a 1:2 series of 7 concentrations (row SIRPα-V1). The protocol: 5 μg/mL SIRPα V1-his and SIRPα V2-his was loaded to a Ni-NTA biosensor for 600 s, respectively. […] The binding time was 200 s and the dissociation time was 600 s. The data were fitted to calculate the affinity.
Background: Biolayer interferometry detects binding as a change in optical thickness at a sensor tip.

For assay [12], the target named is T2, SIRPα-V1 on 293T-SIRPα-V1 cells. The assay is described as follows: FACS titration on 293T-SIRPα-V1 cells, goat anti-hIgG-AF488 (panel SIRPα-V1). The protocol: (§4) 2×10⁵ per well of stable transfer construct cell lines 293T-SIRPα-V1 (SEQ ID NO: 2), CHOZN-SIRPα-V2 (SEQ ID NO: 38), and CHOZN-SIRPα-V8 (SEQ ID NO: 39) in logarithmic phase were dispended in 96-well U-shaped culture plates, […] After washing, the cells were incubated with 0.2 μg of goat anti-hIgG-AF488 for 30 min at 4° C., then resuspended in 50 μL of DPBS/1% FBS and analyzed by flow cytometry with FlowJo V10 and GraphPad Prism6 software.
The source holds these as a separate data set.

In assay [13] the target is T3, SIRPα-V8 on stably transfected cells. The assay can be described thus: FACS titration on CHOZN-SIRPα-V8 cells, goat anti-hIgG-AF488 (panel SIRPα-V8). The protocol: as §4

The EC50 (read off the curve) is the concentration giving half of the maximal effect. As a reminder, the Kd is the equilibrium constant for the complex coming apart. The low end stands for higher affinity, the high end for lower affinity. One may read the koff as the rate constant with which the complex falls apart.

Read-outs that look alike come from different tables or passages of the source.

B1: H7L4-G1 (antibody, human IgG1, kappa)
heavy: not shown
light: DIVLTQSPASLAVSPGQRATITCRASESVDSYGNSFMHWYQQKPGQPPKPLIYLASNLESGVPARFSGSGSGTDFTLTINPVEANDAANYYCQQNNEYPWTFGGGTKVEIKRTVAAPSVFIFPPSDEQLKSGTASVVCLLNNFYPREAKVQWKVDNALQSGNSQESVTEQDSKDSTYSLSSTLTLSKADYEKHKVYACEVTHQGLSSPVTKSFNRGEC
notes: Humanized antibody with wild type human IgG1 and kappa; also called H7L4-G1w
For the molecule B1, the binding result in assay [1] was “binds”. Moreover, the “EC50 (read off the curve)” value was around 500 pM in [2]; around 800 pM in assay [3]; around 30 pM in assay [4]; around 20 pM in assay [5]; around 40 pM in assay [6]. Besides, the “IC50 (read off the curve)” value in assay [7] is around 200 pM; in assay [8], around 10000 pM; in assay [9], around 100 pM; in [10], around 3000 pM. Moreover, the Kd in assay [11] is below 1 pM. The molecule also displayed a koff in [11] below 1e-07 s⁻¹.

B2: H7L4-G1lala (antibody, human IgG1, kappa, L234A L235A)
heavy: not shown
light: DIVLTQSPASLAVSPGQRATITCRASESVDSYGNSFMHWYQQKPGQPPKPLIYLASNLESGVPARFSGSGSGTDFTLTINPVEANDAANYYCQQNNEYPWTFGGGTKVEIKRTVAAPSVFIFPPSDEQLKSGTASVVCLLNNFYPREAKVQWKVDNALQSGNSQESVTEQDSKDSTYSLSSTLTLSKADYEKHKVYACEVTHQGLSSPVTKSFNRGEC
notes: also called humanized antibody H7L4
For the molecule B2, the binding result in [1] is “binds”. In addition, the half-maximal effective concentration (EC50 (read off the curve)) in assay [12] was around 3000 pM; in [2] it was around 400 pM; in assay [3], around 600 pM; in assay [13], around 600 pM; in assay [4] it was around 30 pM; in assay [5], around 20 pM. Also, the “EC50 (read off the curve)” value in assay [6] is around 40 pM. Moreover, the “IC50 (read off the curve)” value in [7] was around 100 pM; in assay [8] it was around 7000 pM; in assay [9], around 200 pM; in assay [10], around 3000 pM. The Kd in assay [11] is below 1 pM. Besides, the koff in [11] is below 1e-07 s⁻¹.
